Source: the supplement of paper PMC12042874
± gives the uncertainty stated by the source.

Assay: amyloid nucleation score (Sup35N fusion, yeast selection) (log enrichment); library NNK3; higher = more nucleation; inactive = no reads after selection
Procedure, shortened: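 Nucleation score is defined as the DiMSum log enrichment of output over input reads, with centring on the mode score of non-aggregating sequences. A minimum of 100 input reads was required for each sequence. Reads came from Illumina sequencing of plasmid inserts from psi-negative yeast expressing Sup35N fused to peptides of 20 random codons, induced with 100 μM copper sulfate for 24 hours and grown 7 days at 30°C on medium lacking adenine and uracil.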
For SYDGWCVTYFDV, the amyloid nucleation score was “inactive”.
For KYHMFRWGLSC, the amyloid nucleation score was “inactive”.
For RIGAYYPMFIFAVLVGSALG, the amyloid nucleation score was “inactive”.
With LELGTLTNRSLCFCEILPFC the amyloid nucleation score was “inactive”.
For LIEDVYLWLCYHRVGYLSAS, the amyloid nucleation score was “inactive”.
With LVSSMMIHVYFNEVLVFMIC the amyloid nucleation score was 0.796 ± 0.1.
In the case of FCMRMDRLQLRIADSLLRFF, the amyloid nucleation score is reported as “inactive”.
With DRIVACKLKTGYTQGMVPLL the amyloid nucleation score was “inactive”.
For FGGLRTATL, the amyloid nucleation score was “inactive”.
In the case of YNCFTHSPWRKH, the amyloid nucleation score is reported as “inactive”.
For KNSASLFL, the amyloid nucleation score was “inactive”.
For ATVTWHYAAWTWLGFRPSSL, the amyloid nucleation score was “inactive”.
In the case of FFLCDRKNRRST, the amyloid nucleation score is reported as “inactive”.
For PSKFVHKSDLCDNGYLPCTR, the amyloid nucleation score was “inactive”.
With FLIYAQALLF the amyloid nucleation score was “inactive”.
With RSDCNGSSKYLISDHFP the amyloid nucleation score was “inactive”.
With DFLFTNFSNSDLRGILCQSF the amyloid nucleation score was “inactive”.
With PFENR the amyloid nucleation score was “inactive”.
In the case of LIADHIVRSSSLMSWFSPSR, the amyloid nucleation score is reported as “inactive”.
With FNYRFSLSHKNGFTRVNYGL the amyloid nucleation score was “inactive”.
For YVMNHTLGAILNAFRGI, the amyloid nucleation score was 1.04 ± 0.17.
With MYCSTYTVFYYAGIRVLCGD the amyloid nucleation score was 1.28 ± 0.14.
For FILYMCKCS, the amyloid nucleation score was “inactive”.
For LESLPINNEFSMQSYTRIVI, the amyloid nucleation score was “inactive”.
For IKYFAIVSVCGFVA, the amyloid nucleation score was 1.23 ± 0.13.
In the case of VEDCSFAVVKILWYRPFMIW, the amyloid nucleation score is reported as “inactive”.
With TMYSLD the amyloid nucleation score was “inactive”.
With CIYCIVA the amyloid nucleation score was 2.64 ± 0.087.
With SWRDILVKRHS the amyloid nucleation score was “inactive”.
Substance VEIISFSVNKTFQAVFGVDK has an amyloid nucleation score of 1.47 ± 0.072.
For VLFRKCQCVRSHLI, the amyloid nucleation score was “inactive”.
In the case of GFIMEYDEY, the amyloid nucleation score is reported as “inactive”.
In the case of MAPPNIWFQCQ, the amyloid nucleation score is reported as “inactive”.
For LPVPGTPLKKAVGGIIRGCG, the amyloid nucleation score was “inactive”.
For WTNIRFAF, the amyloid nucleation score was “inactive”.
In the case of VPVVYGSCCKHRGICMYVL, the amyloid nucleation score is reported as “inactive”.
For SKCDMCTYTQRFNDL, the amyloid nucleation score was “inactive”.
In the case of CRYQCRQLKVIVCSGDWNLV, the amyloid nucleation score is reported as “inactive”.
For CNYFVF, the amyloid nucleation score was “inactive”.
With SLMNPNFFLHMVIRTNCYLK the amyloid nucleation score was “inactive”.
For LWYTSSSRGWPISLSSMW, the amyloid nucleation score was “inactive”.
For GHTANLTYALFMGDFSRAGI, the amyloid nucleation score was “inactive”.
For MIMYIGVCVSVGLFEDYAYR, the amyloid nucleation score was 0.044 ± 0.49.
For SYFGDYLKIYFFYTQHNLSC, the amyloid nucleation score was “inactive”.
For VSVEFRSDSARWGNDVCEET, the amyloid nucleation score was “inactive”.
With WMFRSAVFYGYVYALGCMRS the amyloid nucleation score was 0.924 ± 0.22.
For WIGMYSGETAFLSLPVTQQI, the amyloid nucleation score was “inactive”.
Substance LIYLYWGLFVTSNSLETCR has an amyloid nucleation score of 1.4 ± 0.086.
Work on SICCMWMWMACAIKFQNTRR yielded an amyloid nucleation score of -0.519 ± 1.9.
With VLMGMRCEREFPE the amyloid nucleation score was “inactive”.
In the case of FTSYS, the amyloid nucleation score is reported as “inactive”.
In the case of WILLGNGSMNMKSCFMLLFV, the amyloid nucleation score is reported as “inactive”.
With LLNPCKRSCVNLRMHTQPSS the amyloid nucleation score was “inactive”.
For SGSGWKICRNSHAGAVFYSR, the amyloid nucleation score was “inactive”.
Substance FNVSHLVRYSVCYFCGMIEL has an amyloid nucleation score of 1.89 ± 0.063.
For LLSAMYNHPADMIAKLGKGG, the amyloid nucleation score was “inactive”.
With CSIGVRSVVCS the amyloid nucleation score was “inactive”.
With CYMYVRNGHLEIFLMGLSGF the amyloid nucleation score was “inactive”.
In the case of FWKFRGQTWYCFAGTDGISH, the amyloid nucleation score is reported as -0.002 ± 0.75.
With LSVCVIEHAWVFCRTPVQAF the amyloid nucleation score was “inactive”.
In the case of MRRYIRNIKAHMCVIVRVYL, the amyloid nucleation score is reported as “inactive”.
For RGSCRLVNLEPCRIM, the amyloid nucleation score was “inactive”.
DRLALEFVYRR showed an amyloid nucleation score of 0.145 ± 0.44.
With MVSGH the amyloid nucleation score was “inactive”.
CHLCGMYSVCFLARSRLVLE gave an amyloid nucleation score of 0.067 ± 0.77.
In the case of KQTFKYTGVDHTVT, the amyloid nucleation score is reported as “inactive”.
In the case of MHSTVVEHLLWLTFTPGYKL, the amyloid nucleation score is reported as “inactive”.
In the case of YISEWSLSP, the amyloid nucleation score is reported as 0.909 ± 0.13.
For DLIVILLTSYMYENVVVLNF, the amyloid nucleation score was “inactive”.
In the case of FVGIIGWMIYVEGVY, the amyloid nucleation score is reported as “inactive”.
For RDIASQC, the amyloid nucleation score was -0.698 ± 0.98.
With GTITPRYRYVIEVSSMKRYW the amyloid nucleation score was “inactive”.
With CSGYSTNFGK the amyloid nucleation score was “inactive”.
With SIFPRTCTKFFLGVTGFCFN the amyloid nucleation score was -0.322 ± 0.8.
Substance LVVYSVGFWHR has an amyloid nucleation score of -0.143 ± 0.48.
In the case of KYDVGVYLYLLLPTNCRQQW, the amyloid nucleation score is reported as 1.46 ± 0.12.
With ASENLAEVLIVT the amyloid nucleation score was “inactive”.
With CLSRSCSFFYKATYLRSEMM the amyloid nucleation score was “inactive”.
For HKSVLFNTRSSCRTSVLIVR, the amyloid nucleation score was “inactive”.
In the case of LQTFDYQRVWNKCLSEFSLE, the amyloid nucleation score is reported as “inactive”.
For SYMVSLRIVLFFDYR, the amyloid nucleation score was “inactive”.
For TNKASLFSPAEHIYGKS, the amyloid nucleation score was “inactive”.
In the case of ANMKINVVLLNDCGWGR, the amyloid nucleation score is reported as 1.5 ± 0.12.
Work on FMCLFMNHYLKFGTSFPGRG yielded an amyloid nucleation score of 0.974 ± 0.14.
With PFWWPRKQLYVSQSRKTTAS the amyloid nucleation score was “inactive”.
In the case of CRFFSGFLRPRSNVGGNRYS, the amyloid nucleation score is reported as “inactive”.
For DPYSDVQDKDTSDAGYASRV, the amyloid nucleation score was “inactive”.
Work on RDDFYLNFNFNFVRHGTRDS yielded an amyloid nucleation score of 1.26 ± 0.15.
In the case of NDVKFGSGR, the amyloid nucleation score is reported as “inactive”.
With TQLLMEFSTVSALDITPCDG the amyloid nucleation score was “inactive”.
For RTMSSLLFQFDSFLKLIKSE, the amyloid nucleation score was “inactive”.
With RYGDWLHHS the amyloid nucleation score was “inactive”.
With AYSDFRLTLSSYIVRANETC the amyloid nucleation score was “inactive”.
In the case of NSDMESDSHSNKVVRYLCGP, the amyloid nucleation score is reported as “inactive”.
For SSVTCLLSSLRCIPRGVVFM, the amyloid nucleation score was “inactive”.
With EICSSNKRQRLKRVMEVIFC the amyloid nucleation score was “inactive”.
For SSNDDFWIKGGQCEYIRFRL, the amyloid nucleation score was “inactive”.
For WRKTSVMFADSGIV, the amyloid nucleation score was “inactive”.
For VGKWGFQEGST, the amyloid nucleation score was “inactive”.
With LDAVNF the amyloid nucleation score was “inactive”.
With LHAFLEVSVRYTKSRST the amyloid nucleation score was “inactive”.
With VTVCRHTPILIKKPM the amyloid nucleation score was “inactive”.
With LSMSYLMSVLLCDLQKVYNT the amyloid nucleation score was “inactive”.
With CMVCYLLPGSVSTCSCVRGI the amyloid nucleation score was 2.75 ± 0.064.
In the case of MVVQRNDYIVSVFSTLFPRS, the amyloid nucleation score is reported as 1.6 ± 0.096.
Substance VIVSREKSITRSNVIEWWNL has an amyloid nucleation score of 1.82 ± 0.11.
For VFCVRRSLQNLRNSGNDSHR, the amyloid nucleation score was “inactive”.
For IFVKDFLII, the amyloid nucleation score was “inactive”.
With GTLCTETHGT the amyloid nucleation score was “inactive”.
For YMRDCYSNSGWNIYRSKRLS, the amyloid nucleation score was “inactive”.
For LHEENA, the amyloid nucleation score was “inactive”.
In the case of VFSRKKYRHPWMYAVTFGYC, the amyloid nucleation score is reported as “inactive”.
In the case of VCGILRIIILGLMYVEALGW, the amyloid nucleation score is reported as “inactive”.
In the case of GFYWYTVFAVSLDDCLSKSS, the amyloid nucleation score is reported as “inactive”.
With TYEVPGPPSQRSLSY the amyloid nucleation score was “inactive”.
In the case of NRVYA, the amyloid nucleation score is reported as “inactive”.
VCCFWVVDIKILFSGLPISS gave an amyloid nucleation score of 2.28 ± 0.069.
With LLESTSF the amyloid nucleation score was “inactive”.
Substance GRIGTVGWGISLHYVYTDRA has an amyloid nucleation score of 0.547 ± 0.2.
For GVSYMNCTHWTL, the amyloid nucleation score was “inactive”.
In the case of KGSDFSEFVAWRLLTAYRVP, the amyloid nucleation score is reported as “inactive”.
In the case of RLWICVSQILVILVDALILG, the amyloid nucleation score is reported as “inactive”.
For KSRKFYKTSLCLMNTYLMNM, the amyloid nucleation score was “inactive”.
In the case of SMQVQMTWLCDRSSLGQRNQ, the amyloid nucleation score is reported as 1.6 ± 0.11.
In the case of QSGSVCIGSHASLRRAVVRR, the amyloid nucleation score is reported as “inactive”.
In the case of GFAISQAYALSTPFVCISAI, the amyloid nucleation score is reported as “inactive”.
With YFLGRVRK the amyloid nucleation score was “inactive”.
For WGRGLRPTLVGMFARAHRGA, the amyloid nucleation score was “inactive”.
In the case of NVFQVALRNSLSMLGSGMRM, the amyloid nucleation score is reported as “inactive”.
For MRWMGDGMRSTNSSVNSHGL, the amyloid nucleation score was “inactive”.
For SSVYCL, the amyloid nucleation score was -0.781 ± 1.3.
With HLVADWQCHSDGFKSWLGNW the amyloid nucleation score was “inactive”.
For RRLTGFMQVVRKNWVLGELA, the amyloid nucleation score was 1.04 ± 0.21.
Work on SYGDPCQAKGQIRIVYGWHW yielded an amyloid nucleation score of 0.308 ± 0.25.
For FNRGLLNHFFGH, the amyloid nucleation score was “inactive”.
For VWRSNF, the amyloid nucleation score was “inactive”.
In the case of SKPACRRFTLNDQKRKVEWI, the amyloid nucleation score is reported as “inactive”.
With MFKNILCVHVLTSAGT the amyloid nucleation score was “inactive”.
For LHIHRFWQQPHTNAGRIPHP, the amyloid nucleation score was “inactive”.
With TPEVISSV the amyloid nucleation score was “inactive”.
Work on SLSATCLCTVMSTNFIFYVF yielded an amyloid nucleation score of 0.509 ± 0.41.
For VFLSICSEGTFCLGDLSGCV, the amyloid nucleation score was 2.43 ± 0.082.
For DWSPLAGRRMTSAVDGVSMD, the amyloid nucleation score was “inactive”.
QIMILVCCQTGFWSERARRG gave an amyloid nucleation score of 2.98 ± 0.058.
Work on MFRDIWLFGPISWIYECCRS yielded an amyloid nucleation score of 2.36 ± 0.091.
In the case of LFLRDNF, the amyloid nucleation score is reported as “inactive”.
In the case of VNTFVFTGFCMYSFVMSWLN, the amyloid nucleation score is reported as 0.525 ± 0.2.
With GFVMMFNR the amyloid nucleation score was “inactive”.
In the case of ANAVLKIFTSVMGSVNS, the amyloid nucleation score is reported as “inactive”.
In the case of LIFFRVVSQLFKFSLRDLPL, the amyloid nucleation score is reported as “inactive”.
Work on INWAKHDWGFNYFSCSICWV yielded an amyloid nucleation score of 1.39 ± 0.079.
RPRFWICMSYMEQSSDNRRT gave an amyloid nucleation score of 1.37 ± 0.084.
For NRFCLRSTLSYSWYGDRSWA, the amyloid nucleation score was 0.185 ± 0.7.
In the case of FVHSLRVVIW, the amyloid nucleation score is reported as “inactive”.
With FLGFDRVFYGRRISPSFVRT the amyloid nucleation score was “inactive”.
GFGYCVWQESGNLRGCRWLW gave an amyloid nucleation score of 0.5 ± 0.39.
Work on SCFCNVFVVDMMSLSMGDIL yielded an amyloid nucleation score of 2.4 ± 0.05.
In the case of NLAFAVYARTRLKLSPASCV, the amyloid nucleation score is reported as “inactive”.
In the case of WNPCVHTLGI, the amyloid nucleation score is reported as “inactive”.
In the case of NKIVNECWHLICSFKLGNLQ, the amyloid nucleation score is reported as “inactive”.
